T1: recombinant human S100A9 (human), P06702
T1 chain: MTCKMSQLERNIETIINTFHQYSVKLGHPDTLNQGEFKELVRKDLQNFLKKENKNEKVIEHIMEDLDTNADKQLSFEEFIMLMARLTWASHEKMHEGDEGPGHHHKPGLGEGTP

B1: recombinant human S100A9, P06702 1-114 (natural protein)
chain: T1 chain
B2: recombinant murine S100A9 (natural protein, UniProt P31725 1-113, looked up)
chain: MANKAPSQMERSITTIIDTFHQYSRKEGHPDTLSKKEFRQMVEAQLATFMKKEKRNEALINDIMEDLDTNQDNQLSFEECMMLMAKLIFACHEKLHENNPRGHGHSHGKGCGK
notes: cDNA encoding the protein cloned into a pET29+ vector; The homodimeric status is said of r-hS100A9; also called r-mS100A9; not shown: His10, N-terminal, cleaved; MBP, N-terminal, cleaved

Key:
[1] = target: T1, recombinant human S100A9 (human), P06702; assay: SEC-MALS; 30 µL of protein at 5 mg/mL on a Superose 6 Increase 10/300 GL column; light scattering and refractive index detectors; conditions: remark: other sources report otherwise
[2] = target: the molecule itself; assay: SEC; analytical gel filtration, Superose 6 Increase 3.2/300 column

| Binder | stoichiometry N [1] | binding result [2] |
| --- | --- | --- |
| B1 | 2 |  |
| B2 |  | binds |

From paper PMC9287425, “Hepatic non-parenchymal S100A9-TLR4-mTORC1 axis normalizes diabetic ketogenesis” (Nature Communications, 2022)
